{"source": "paper PMC6201861", "about": "“Generation and characterization of novel recombinant anti-hERG1 scFv antibodies for cancer molecular imaging” (Oncotarget, 2018)", "binders": {"B1": {"name": "scFv-hERG1-Cys (scFv, V domains shown)", "VH": "EVQLQQSGPELVKPGASVKISCKTSGYTFTEYTVHWVKQSHGKSLEWIGGINPNGGTTYNQKFKGKATLTIDKSSSSAFMELRSLTSEDSAVYYCATGWGPDYWGQGTTLTVSS", "VL": "not shown", "notes": "numbers count on: Kabat scheme of the VH; as the linker of m1; as the VL of m1; also called mutagenized scFv-hERG1; scFv-Cys; source: P. pastoris GS115 (pPIC9K), purified from culture supernatant (HisTrap HP)"}, "B2": {"name": "scFv-hERG1-Cys-Alexa488 (scFv, V domains shown)", "VH": "B1 VH", "VL": "not shown", "notes": "numbers count on: Kabat scheme of the VH; as the linker of m1; as the VL of m1; Same protein as m2, with the fluorophore"}}, "key": {"[1]": {"target": "T1, hERG1 potassium channel expressed on hERG1-transfected HEK 293 cells (Homo sapiens (Human)., UniProt Q12809)", "T1 construct": "human ether-a-go-go-related gene-1 (hERG1, Kv 11.1) potassium channel; cell culture details are in the Supplementary Materials; also called HEK-hERG1; HEK 293 hERG1; source: HEK 293, transfected, on cells", "T1 sequence (Q12809 whole entry)": "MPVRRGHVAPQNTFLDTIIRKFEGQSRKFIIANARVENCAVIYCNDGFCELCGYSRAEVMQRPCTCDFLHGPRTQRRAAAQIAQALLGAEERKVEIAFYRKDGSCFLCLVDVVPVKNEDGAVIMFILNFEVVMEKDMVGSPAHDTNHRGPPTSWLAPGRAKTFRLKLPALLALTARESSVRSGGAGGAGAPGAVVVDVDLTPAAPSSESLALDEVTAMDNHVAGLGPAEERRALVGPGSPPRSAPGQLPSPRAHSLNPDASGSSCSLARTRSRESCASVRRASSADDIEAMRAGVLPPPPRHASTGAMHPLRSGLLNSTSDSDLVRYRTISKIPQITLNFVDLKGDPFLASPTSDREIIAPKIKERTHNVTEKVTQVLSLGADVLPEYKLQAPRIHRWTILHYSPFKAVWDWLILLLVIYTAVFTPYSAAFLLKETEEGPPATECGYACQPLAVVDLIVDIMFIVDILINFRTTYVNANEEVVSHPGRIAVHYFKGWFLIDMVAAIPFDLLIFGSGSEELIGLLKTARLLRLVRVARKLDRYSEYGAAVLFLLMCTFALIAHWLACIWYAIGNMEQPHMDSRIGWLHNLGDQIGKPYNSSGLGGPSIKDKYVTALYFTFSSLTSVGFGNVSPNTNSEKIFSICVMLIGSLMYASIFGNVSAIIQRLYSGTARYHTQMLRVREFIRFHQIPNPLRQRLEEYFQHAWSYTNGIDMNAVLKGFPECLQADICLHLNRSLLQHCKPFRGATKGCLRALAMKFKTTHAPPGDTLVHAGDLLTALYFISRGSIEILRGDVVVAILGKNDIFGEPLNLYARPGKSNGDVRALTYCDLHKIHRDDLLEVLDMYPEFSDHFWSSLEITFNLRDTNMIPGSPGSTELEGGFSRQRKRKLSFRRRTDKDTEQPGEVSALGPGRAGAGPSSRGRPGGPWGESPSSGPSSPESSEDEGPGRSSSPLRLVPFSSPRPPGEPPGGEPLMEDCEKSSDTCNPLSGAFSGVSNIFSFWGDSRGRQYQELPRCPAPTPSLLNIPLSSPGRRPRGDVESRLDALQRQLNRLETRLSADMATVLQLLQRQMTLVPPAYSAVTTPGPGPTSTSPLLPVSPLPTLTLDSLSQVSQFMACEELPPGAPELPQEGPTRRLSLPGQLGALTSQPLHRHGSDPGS", "assay": "immunostaining of cells or tissue; indirect immunofluorescence on fixed HEK-hERG1 and HEK-Mock cells", "conditions": "one partner purified"}, "[2]": {"target": "T2, S5-Pore peptide (Homo sapiens (Human).)", "T2 construct": "peptide of the extracellular S5-P loop of the human hERG1 (Kv 11.1) potassium channel; also called antigenic peptide; raising peptide", "T2 chain": "EQPHMDSRIGWLHN", "assay": "ELISA; S5-Pore peptide as coating antigen; 0.1 to 10 ug of scFv (Alexa488 conjugate at 1 ug); revealed with anti-6xHis antibody then anti-mouse IgG-HRP; OD450", "conditions": "both partners purified"}, "[3]": {"target": "T2, S5-Pore peptide", "assay": "SPR; Biacore T100; S5-Pore peptide amine-coupled to a CM5 chip; scFv flowed at 2.5, 5, 10, 20, 40 ug/ml; contact 120 s, dissociation 600 s, 30 ul/min; 1:1 binding model for scFv-hERG1, two-state reaction model for scFv-hERG1-Cys", "conditions": "both partners purified"}, "[4]": {"target": "T1, hERG1 potassium channel expressed on …", "assay": "immunostaining of cells or tissue; direct immunofluorescence with the Alexa 488 conjugate on fixed cells (HEK-hERG1, HEK-Mock; PANC-1 in 2D and as spheroids)", "conditions": "one partner purified"}, "[5]": {"target": "T3, hERG1 potassium channel endogenously expressed on cancer cell lines (Homo sapiens (Human)., UniProt Q12809)", "T3 construct": "human ether-a-go-go-related gene-1 (hERG1, Kv 11.1) potassium channel; also called hERG1 on PANC-1 cells; Kv 11.1; source: endogenous, on PANC-1 cells (2D and spheroids); in the viability tests also MDA-MB231, MIAPaCa-2, HCT-116", "T3 sequence (Q12809 whole entry)": "as above", "assay": "immunostaining of cells or tissue; direct immunofluorescence with the Alexa 488 conjugate on fixed cells (HEK-hERG1, HEK-Mock; PANC-1 in 2D and as spheroids)", "conditions": "one partner purified"}}, "data": [{"binder": "B1", "values": [{"measurement": "binding result", "setting": "[1]", "result": "binds"}, {"measurement": "fold binding against scFv-hERG1 (ELISA O.D.)", "setting": "[2]", "result": "~2", "unit": "fold"}, {"measurement": "Kd", "setting": "[3]", "result": 61.8, "unit": "nM"}]}, {"binder": "B2", "values": [{"measurement": "binding result", "setting": "[4]", "result": "binds"}, {"measurement": "binding result", "setting": "[5]", "result": "binds"}]}]}
